The values below come from patent US12721795B2, “Personal dental care product for preventing demineralisation” (CREDENTIS AG, priority 2019, dated 2026).

The conditions of series [1]: cited from earlier work; for pH at which the peptide starts to undergo self-assembly: in solution.
A short description of series [2]: Determination of fibres eluting from matrix (TEM of artificially chewed toffee-saliva). Particulars: toffee with assembled P11-4 (35 mg/ml), 3 mL artificial saliva, artificial chew 5 min. It counts as physicochemical. Here is the method: Sample: • Place 1 toffee with or without assembled P11-4 (35 mg/ml) in artificial saliva 3 mL (cf. Example 2) • Artificial chew for 5 min in artificial mastication equipment. • Remove supernatant (saliva) Method TEM • Dilute sample (10 mg/mL) with H2O at a ratio of 1:63 • Place 1 μL of control solution on TEM-grid Sample • Place 20 μL of water on a parafilm • Place gently the TEM Grid with dark site facing upwards on the parafilm, close to the drop • Application of 10 μL sample on TEM carbon coated grids (hexagonal) • 10 min incubation • Remove unbound sample with a paper tissue • Put the grid into 3% Uranylacetate solution 20 ul • 40 sec incubation • Remove unbound Uranylacetate with a paper tissue • Wash the grid 2 times with distilled water • pipet 5 μL droplet on top of the grid and remove it • Dry it for 20 min at RT • Introduce sample into sample holder for TEM • Analyse @ 50 kV, Vacuum at least 9*10-6 hPa

“Also recorded” adds a separate entry of the source.

For the substance “QQRFEWEFEQQ (self-assembling peptide P11-4)”, the “pH at which the peptide starts to undergo self-assembly” value in series [1] is “about 7.5”. Besides, the assembly state entry in series [1] (ionic strength corresponding to 150 mM NaCl, neutral pH (Carrick et al., 2007)) was “assembled”. Besides, the “assembled fibres of peptide in artificial saliva after mastication (TEM)” value in series [2] is “distinct fibre bundle; also recorded: maintains its assembled form”.

Take “terminally modified P11-4: peptide P11-4 that is N-terminally acetylated and C-terminally amidated with a NH2-group (Ac-QQRFEWEFEQQ-NH2)”: the “pH at which the peptide starts to undergo self-assembly” value in series [1] is on record as “about 7.5”.
